Consider 6 molecules from patent US20250368978A1, “SQUALENE HOPENE CYCLASE VARIANTS FOR PRODUCING SCLAREOLIDE” (INTERNATIONAL FLAVORS & FRAGRANCES INC., priority 2022, published 2025).

This assay is described as follows: SHC variant screening reactions: conversion of HFA to sclareolide by freeze-dried whole cells, GC analysis. Format: biochemical, Gluconobacter morbifer. The settings on record: for Fold improvement (sclareolide production): 10 mg/mL HFA, 100% enzyme loading, based on % peak area, relative to V45L+Q54E+I278T+T326S variant, no metal ions; for Fold improvements (sclareolide production): 20 mg/mL HFA, 50% enzyme loading, relative to initial mutant. On the procedure:
SHC Variant Enzyme Expression. Wild-type and the GmSHC variants of Table 5 were individually cloned into pET28a(+). These DNA constructs were transformed into Lemo21 (DE3) E. coli and plated onto agar plates containing Kanamycin. These were incubated overnight at 37° C. A single bacterial colony was picked and used to inoculate 10 mL LB+Kanamycin in a 50 mL falcon tube. This primary culture was incubated overnight at 37° C. with agitation. These cultures (10 mL) were used to inoculate 1L LB+Kanamycin in a shake flask, which was subsequently incubated at 37° C. at 180 rpm for about 4 hours. Protein expression was then induced with the addition of 0.4 mM IPTG and 0.2 mM L-rhamnose. The incubator temperature was lowered to 25° C. and the cultures further incubated at 180 rpm overnight. The next day, the cultures were centrifuged at 4000 rpm for 10 minutes and the supernatant discarded. Cell pellets were resuspended in 0.1 M Potassium phosphate buffer pH 7.4 and exposed to 1 round of freeze/thawing before lyophilization and then use in the reaction assay.
SHC Variant Screening Reactions. Sodium citrate buffer 0.2 M, pH 5 was prepared and 500 μL of this buffer was added to freeze-dried whole cells of each variant (from 1 L shake flask fermentation of E. coli transformed with desired variant plasmid). The results were obtained with an enzyme loading of 50% (w/w). Subsequently, HFA (20 mg/mL) was added to the buffer/enzyme mix. The reactions were incubated at 25° C. with agitation for 72 hours. To stop the reaction and extract the products, a 2X volume of 3:2, heptane: isopropanol was added to each reaction. These were then incubated at 37° C. for 30 minutes with agitation to mix thoroughly. The reactions were centrifuged for 10 minutes at 4000 rpm to pellet any cellular material. The upper organic layer was then removed and placed in a clean gas chromatography (GC) vial.
GC Analysis Method. A GC analytical method was used to detect each of the starting materials and products used in the screening reactions. Due to the volume of samples generated, a fast method was developed with a run time of only 4.5 minutes.
No metal ions were included in the reaction.
Further analysis was conducted to identify one or more optimal SHC enzymes. In particular, substrate loading was increased to 20 mg/mL and incubation with a reduced enzyme loading (50%).

B1: V45L + Q54E + V222Q + R249R + I278T + T326S: GmSHC variant with these substitutions relative to SEQ ID NO: 2 (protein)
chain: MSPADISTKSSSFQRLDNMLPEAVSSACDWLIDQQKPDGHWVGPLESNACMEAEWCLALWFLGQEDHPLRPRLAQALLEMQREDGSWGIYVGADHGDINTTVEAYAALRSMGYAADMPIMAKSAAWIQQKGGLRNVRVFTRYWLALIGEWPWDKTPNLPPEIIWLPDNFIFSIYNFAQWARATMMPLTILSARRPSRPLLPENRLDGLFPEGRENFDYELPQKGEEDLWGRFFRAADKGLHSLQSFPVRRFVPREAAIRHVIEWIIRHQDADGGWGGTQPPWIYGLMALSVEGYPLHHPVLAKAMDALNDPGWRRDKGDASWIQASNSPVWDTMLAVLALHDAGAEDRYSPQMDKAIGWLLDRQVRVKGDWSIKLPDTEPGGWAFEYANDKYPDTDDTAVALIALAGCRHRPEWRERDIEGAISRGVNWLLAMQSSSGGWGAFDKDNNRSILTKIPFCDFGEALDPPSVDVTAHVLEAFGLLGISRNHPSVQKALAYIRSEQERNGAWFGRWGVNYVYGTGAVLPALAAIGEDMTQPYIVRACDWLMSVQQENGGWGESCASYMDINAVGHGVATASQTAWALIGLLAAKRPKDREAIARGCQFLIERQEDGSWTEEEYTGTGFPGYGVGQAIKLDDPSLPDRLLQGAELSRAFMLRYDLYRQYFPVMALSRARRMMKEDASAAA
modifications: Gluconobacter morbifer
In the case of B1, the “Fold improvement (sclareolide production)” value is 3.9 Fold and the “Fold improvements (sclareolide production)” value (from here on “Fold improvements”) is recorded as 30.3 Fold.

B2: V45L + Q54E + R249R + I278A + T326S: GmSHC variant with these substitutions relative to SEQ ID NO: 2 (protein)
chain: MSPADISTKSSSFQRLDNMLPEAVSSACDWLIDQQKPDGHWVGPLESNACMEAEWCLALWFLGQEDHPLRPRLAQALLEMQREDGSWGIYVGADHGDINTTVEAYAALRSMGYAADMPIMAKSAAWIQQKGGLRNVRVFTRYWLALIGEWPWDKTPNLPPEIIWLPDNFIFSIYNFAQWARATMMPLTILSARRPSRPLLPENRLDGLFPEGRENFDYELPVKGEEDLWGRFFRAADKGLHSLQSFPVRRFVPREAAIRHVIEWIIRHQDADGGWGGAQPPWIYGLMALSVEGYPLHHPVLAKAMDALNDPGWRRDKGDASWIQASNSPVWDTMLAVLALHDAGAEDRYSPQMDKAIGWLLDRQVRVKGDWSIKLPDTEPGGWAFEYANDKYPDTDDTAVALIALAGCRHRPEWRERDIEGAISRGVNWLLAMQSSSGGWGAFDKDNNRSILTKIPFCDFGEALDPPSVDVTAHVLEAFGLLGISRNHPSVQKALAYIRSEQERNGAWFGRWGVNYVYGTGAVLPALAAIGEDMTQPYIVRACDWLMSVQQENGGWGESCASYMDINAVGHGVATASQTAWALIGLLAAKRPKDREAIARGCQFLIERQEDGSWTEEEYTGTGFPGYGVGQAIKLDDPSLPDRLLQGAELSRAFMLRYDLYRQYFPVMALSRARRMMKEDASAAA
modifications: Gluconobacter morbifer
B2: the “Fold improvements” value came to 25.6 Fold.

B3: V45L + Q54E + V222K + R249R + I278T + T326S: GmSHC variant with these substitutions relative to SEQ ID NO: 2 (protein)
chain: MSPADISTKSSSFQRLDNMLPEAVSSACDWLIDQQKPDGHWVGPLESNACMEAEWCLALWFLGQEDHPLRPRLAQALLEMQREDGSWGIYVGADHGDINTTVEAYAALRSMGYAADMPIMAKSAAWIQQKGGLRNVRVFTRYWLALIGEWPWDKTPNLPPEIIWLPDNFIFSIYNFAQWARATMMPLTILSARRPSRPLLPENRLDGLFPEGRENFDYELPKKGEEDLWGRFFRAADKGLHSLQSFPVRRFVPREAAIRHVIEWIIRHQDADGGWGGTQPPWIYGLMALSVEGYPLHHPVLAKAMDALNDPGWRRDKGDASWIQASNSPVWDTMLAVLALHDAGAEDRYSPQMDKAIGWLLDRQVRVKGDWSIKLPDTEPGGWAFEYANDKYPDTDDTAVALIALAGCRHRPEWRERDIEGAISRGVNWLLAMQSSSGGWGAFDKDNNRSILTKIPFCDFGEALDPPSVDVTAHVLEAFGLLGISRNHPSVQKALAYIRSEQERNGAWFGRWGVNYVYGTGAVLPALAAIGEDMTQPYIVRACDWLMSVQQENGGWGESCASYMDINAVGHGVATASQTAWALIGLLAAKRPKDREAIARGCQFLIERQEDGSWTEEEYTGTGFPGYGVGQAIKLDDPSLPDRLLQGAELSRAFMLRYDLYRQYFPVMALSRARRMMKEDASAAA
modifications: Gluconobacter morbifer
With B3, the “Fold improvements” value is given as 33.2 Fold.

B4: V45L + Q54E + R249R + I278T + T326S: GmSHC variant with these substitutions relative to SEQ ID NO: 2; R249R is a silent mutation (protein)
chain: MSPADISTKSSSFQRLDNMLPEAVSSACDWLIDQQKPDGHWVGPLESNACMEAEWCLALWFLGQEDHPLRPRLAQALLEMQREDGSWGIYVGADHGDINTTVEAYAALRSMGYAADMPIMAKSAAWIQQKGGLRNVRVFTRYWLALIGEWPWDKTPNLPPEIIWLPDNFIFSIYNFAQWARATMMPLTILSARRPSRPLLPENRLDGLFPEGRENFDYELPVKGEEDLWGRFFRAADKGLHSLQSFPVRRFVPREAAIRHVIEWIIRHQDADGGWGGTQPPWIYGLMALSVEGYPLHHPVLAKAMDALNDPGWRRDKGDASWIQASNSPVWDTMLAVLALHDAGAEDRYSPQMDKAIGWLLDRQVRVKGDWSIKLPDTEPGGWAFEYANDKYPDTDDTAVALIALAGCRHRPEWRERDIEGAISRGVNWLLAMQSSSGGWGAFDKDNNRSILTKIPFCDFGEALDPPSVDVTAHVLEAFGLLGISRNHPSVQKALAYIRSEQERNGAWFGRWGVNYVYGTGAVLPALAAIGEDMTQPYIVRACDWLMSVQQENGGWGESCASYMDINAVGHGVATASQTAWALIGLLAAKRPKDREAIARGCQFLIERQEDGSWTEEEYTGTGFPGYGVGQAIKLDDPSLPDRLLQGAELSRAFMLRYDLYRQYFPVMALSRARRMMKEDASAAA
modifications: Gluconobacter morbifer
notes: R249R is a silent mutation
As for B4, the “Fold improvement (sclareolide production)” value is on record as 4.2 Fold and the “Fold improvements” value was found to be 7 Fold.

B5: V45L + Q54E + V222K + I278A + T326S: GmSHC variant with these substitutions relative to SEQ ID NO: 2 (protein)
chain: MSPADISTKSSSFQRLDNMLPEAVSSACDWLIDQQKPDGHWVGPLESNACMEAEWCLALWFLGQEDHPLRPRLAQALLEMQREDGSWGIYVGADHGDINTTVEAYAALRSMGYAADMPIMAKSAAWIQQKGGLRNVRVFTRYWLALIGEWPWDKTPNLPPEIIWLPDNFIFSIYNFAQWARATMMPLTILSARRPSRPLLPENRLDGLFPEGRENFDYELPKKGEEDLWGRFFRAADKGLHSLQSFPVRRFVPREAAIRHVIEWIIRHQDADGGWGGAQPPWIYGLMALSVEGYPLHHPVLAKAMDALNDPGWRRDKGDASWIQASNSPVWDTMLAVLALHDAGAEDRYSPQMDKAIGWLLDRQVRVKGDWSIKLPDTEPGGWAFEYANDKYPDTDDTAVALIALAGCRHRPEWRERDIEGAISRGVNWLLAMQSSSGGWGAFDKDNNRSILTKIPFCDFGEALDPPSVDVTAHVLEAFGLLGISRNHPSVQKALAYIRSEQERNGAWFGRWGVNYVYGTGAVLPALAAIGEDMTQPYIVRACDWLMSVQQENGGWGESCASYMDINAVGHGVATASQTAWALIGLLAAKRPKDREAIARGCQFLIERQEDGSWTEEEYTGTGFPGYGVGQAIKLDDPSLPDRLLQGAELSRAFMLRYDLYRQYFPVMALSRARRMMKEDASAAA
modifications: Gluconobacter morbifer
B5: the “Fold improvements” value is listed as 20.4 Fold.

B6: V45L + Q54E + R249R + I278T + T326S + A574A: GmSHC variant with these substitutions relative to SEQ ID NO: 2 (protein)
chain: MSPADISTKSSSFQRLDNMLPEAVSSACDWLIDQQKPDGHWVGPLESNACMEAEWCLALWFLGQEDHPLRPRLAQALLEMQREDGSWGIYVGADHGDINTTVEAYAALRSMGYAADMPIMAKSAAWIQQKGGLRNVRVFTRYWLALIGEWPWDKTPNLPPEIIWLPDNFIFSIYNFAQWARATMMPLTILSARRPSRPLLPENRLDGLFPEGRENFDYELPVKGEEDLWGRFFRAADKGLHSLQSFPVRRFVPREAAIRHVIEWIIRHQDADGGWGGTQPPWIYGLMALSVEGYPLHHPVLAKAMDALNDPGWRRDKGDASWIQASNSPVWDTMLAVLALHDAGAEDRYSPQMDKAIGWLLDRQVRVKGDWSIKLPDTEPGGWAFEYANDKYPDTDDTAVALIALAGCRHRPEWRERDIEGAISRGVNWLLAMQSSSGGWGAFDKDNNRSILTKIPFCDFGEALDPPSVDVTAHVLEAFGLLGISRNHPSVQKALAYIRSEQERNGAWFGRWGVNYVYGTGAVLPALAAIGEDMTQPYIVRACDWLMSVQQENGGWGESCASYMDINAVGHGVATASQTAWALIGLLAAKRPKDREAIARGCQFLIERQEDGSWTEEEYTGTGFPGYGVGQAIKLDDPSLPDRLLQGAELSRAFMLRYDLYRQYFPVMALSRARRMMKEDASAAA
modifications: Gluconobacter morbifer
As for B6, the “Fold improvements” value came out at 27 Fold.
